Experiments:
Assay in all cases: ELISA
[1] = biological target: lysozyme from chicken egg white (Gallus gallus, UniProt P00698)
ubiquitin (in-house) = ubiquitin (in-house) (Homo sapiens, UniProt P0CG47)
human insulin = human insulin (Homo sapiens, UniProt P01308)
[2] = biological target: albumin from human serum, low endotoxin (Homo sapiens, UniProt P02768)

Measured: binding result

human insulin, sequence (P01308 whole entry, looked up): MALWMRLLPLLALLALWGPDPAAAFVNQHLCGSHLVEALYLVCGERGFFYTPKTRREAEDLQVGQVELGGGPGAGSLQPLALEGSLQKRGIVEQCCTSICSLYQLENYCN
lysozyme from chicken egg white, sequence (P00698 19-147): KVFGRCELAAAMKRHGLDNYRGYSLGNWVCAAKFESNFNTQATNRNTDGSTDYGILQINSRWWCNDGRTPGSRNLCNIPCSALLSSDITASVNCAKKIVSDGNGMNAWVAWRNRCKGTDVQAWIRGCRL
albumin from human serum, low endotoxin, sequence (P02768 25-609): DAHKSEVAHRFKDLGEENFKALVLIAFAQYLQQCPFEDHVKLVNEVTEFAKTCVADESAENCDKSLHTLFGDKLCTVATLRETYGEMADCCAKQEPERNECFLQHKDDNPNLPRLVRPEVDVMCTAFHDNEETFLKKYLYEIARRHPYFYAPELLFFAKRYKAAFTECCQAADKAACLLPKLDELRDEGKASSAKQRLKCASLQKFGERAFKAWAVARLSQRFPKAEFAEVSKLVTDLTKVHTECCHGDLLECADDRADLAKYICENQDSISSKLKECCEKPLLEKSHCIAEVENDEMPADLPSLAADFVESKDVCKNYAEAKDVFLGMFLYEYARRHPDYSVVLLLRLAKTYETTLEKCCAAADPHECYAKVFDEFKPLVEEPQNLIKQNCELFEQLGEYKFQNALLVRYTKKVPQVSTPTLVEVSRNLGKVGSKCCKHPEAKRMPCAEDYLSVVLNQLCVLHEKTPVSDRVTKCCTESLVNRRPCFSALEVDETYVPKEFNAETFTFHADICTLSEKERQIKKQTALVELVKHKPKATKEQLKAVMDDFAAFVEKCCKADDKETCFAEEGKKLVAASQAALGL

B1: 338E6 mAb (polyreactive mouse IgA monoclonal antibody, full-length) (antibody, V domains shown)
VH: EVKLEESGGDLVKPGGSLKLSCAASGFTFSSYGMSWVRQTPDKRLEWVATISSGGSYTYYPDSVKGRFTISRDNAKNTLYLQMSSLKSEDTAMYYCARRGFYFDYWGQGTTLTVSS
VL: ETTVTQSQKFMSTSVGDRVSVTCKASQNVGTNVAWYQQKPGQSPKALIYSASYRYSGVPDRFTGSGSGTDFTLTISNVQSEDLAEYFCQQYNSYPLTFGQGTKVEIK
binds: [1] | ubiquitin (in-house) | human insulin | [2]

B2: 43G10 mAb (polyreactive mouse IgA monoclonal antibody, full-length) (antibody, V domains shown)
VH: QVQLKQSGPGLVKPSQSLSLTCSVTGYSITSGFYWTWIRQFPGNKVEWMGYINYAGNNDYNPSLKDRISITRDTSKNQFFLKLNSVTSEDTATYYCTRGTGRIEYWGQGTSVTVSS
VL: DIKMTQSPSSLAVSVGEKVSMSCKSSQSLLYSYNQKNYLAWYQQAPGQSPKLLIYWASTRESGVPDRFTGSGSGTDFTLTISNVKTEDLAVYYCQQYHSHPLTFGQGTKVEIK
binds: [1] | ubiquitin (in-house) | human insulin | [2]
